experiment: label from the status in PepcDB records

Sequence	protein production
MTKKQKEILFCDYFEEWVEVYKVGAIAKITLAKYYNAAKQLRDLCPKLFISDFDRREYQRIINVYAETHEKQTVKDFHHHVKACIKDLFHDGLIDKDPTYRVVIKGAEPTRAKLEHHHHHH	failed
MTKKTGFFKRLKALTLPQKQLFATALCQRMLPNYQLFSEVCEFGDPAVLSTALELLWQSLYDPKLKFNIDVHLQRLEDNTPEPADFEAYGVYPAMDAVVAISTLLGAIQGKIEEDIVNISKLSSSTVANYIEAISDVDLVDEALDDFVFAHEVMEEEKELQNSLLEIIEENPKITAELVKGLRKDIIETGVSNIGISVA	not failed
MTKMYINTIIEYIDSNIAYSPIVFFSLLILAGLNVPISEDAIVLMGGILSSRKNEYTILIFLGIFWGAYLGDIISFYIGKLMGNKLFKNKKDNNLLDKINYYYGQYGVLTLFIGRFIPFGVRNAIFMSAGMGNMKSNLFIVSDFFATLLSIVVYFTLSFKLGQSFEIIFSKIKIIIFAIFIAVIATTIIIYVIKKNKKVDKNLK	failed
MTKNAASKARIAYVCTECGTEYSKWQGQCTECGTWNCLSQITLGNAGSVKNPTMKHGNWTGQLDPPKITALKDVQHSEQARISTGIGEFDRVLGGGLVAGAVVLIGGDPGIGKSTLLLQALARMASNLPTLYVTGEESLAQVAGRAVRLDLPLEGLNALAETGIESILQHASSARPRLIVADSVQTLWTEALTAAPGSVSQVRESAAQLVRYAKETGTTVFLVGHVTKEGGIAGPRVLEHMVDAVLYFEGESGSRFRLLRAFKNRFGAVNELGVFAMSEKGLKEVANPSAIFLSGRNSDQPGSCVMVTREGTRPLMVEVQALVDTSPLSNPRRVTVGLEQNRLAMLLAVLHRHGNVLVGDQDVFINIVGGIRVQETAADLPVLLAVRSSLCNRALPEKTIAFGEVGLSGEIRPVPNGEERLREAATHGFKHAIVPKANAPKSAIKDMQIIAVERLDQALEASY	failed
MTKQIKVGVIGVGQMGQYHAEIYQKLPQVELVAICEFNDERRAEMAEKFQCKAYKDYHELLANTEIEAVIIVLPDNMHRDCVEEAVKHKKHILLEKPLAKELEDGKAMYELTKDYDKVFTVGFLLRFDPRFNMIKQRLDNGELGDIIHLYCRRNSPITGPKRYIGASDLSMHVMIHDIDYINWYMDSEPVKVIAKSRSVLLKEYGMNDVIYAIVTYENGAIACLEACWVLPENSPTIIDDKLELVGTKGVAYVDSCDHGVRFVSEKGVSYPDSRHWYYTNGEVSGDLAEEVMAFINNVANNTKSIITPKEAYDSLRVVDAIERSIAEGKEVSL	failed
MTKRHVSLPADAKDVRRAFVSGVDERLSAAETPDELATAVTGTLADLRGERDAYEAWRDGDDVRPAAAARLATLDPRNASLESEYYAEKDEAAFARSKPLQWLWRQFDTTPLADNVDVALPFRRMLAGHLFAGVGEDVRLFKGITMTYGHNIELGDNAVVHDGVHLDDRGELVVGARASVSNGAHLYTHDHDVVDQTDVTNYRTEIGADARVTQGALVRAGVRVGENALVGSRSVVQGDVPAHHIAVGSPAESVRVKPGWEAVAAPLDAGGERRQAERRLDDAVPADAAVYDEFQRDRSPPGER	failed
MTKSYDVWWQKGQESDDDMARDHQEAWERTIEMLDTSDIKGKTILDVGCNQGGFLRKLYDTTPFKEGVGIDLARLSLEKAETLKGERPLTYYLTDKPQETNRTFDTAVSTSVLYLIEDIPQHAQDLKEVLKPGGVYYASFADLTNNPSRQFMDDTINQYGATPSQNHSLKHIVDSFVDAGFEVAVMKEPVPDVIDLTHYSDFYLSPNDYLQTLYEESFLIKASVKEGIGKLEHHHHHH	not failed
MTKVLILGANGRIARIVEQRLLAETDVQLTLVLRNAGRLLVTSPERETVIQGDVSDSQLLDTVMPNQDIVYANLAGNMALLAQTIITSMNRNHVPHLIWVTGSGLYHETPNPFGAWVEQVVGHAAKNDTRHAARIIESSDIPATIIRAAYMTDDTKIDYELTYKGERFKGTMISRASIADLIMKIIAEPTAYENTSLGIAQPGTDNMLPQVKLMAQHR	failed
MTKYKVALFDLDNTLLKTEDASVAALTYALNQDGVEVTPQAIVELMGLPGIDMARELGSSNPAKTIDIFNERINQEVDLIKEYDGIDEMFAGLRELGIEYGIVTSKLRRVFDDEMRSFPKIRAIEKVVLSDDTKKHKPHADPIEFGMQKYFPKLNRADVIYVGDSLFDMQSAHAAGVDFANAGWGAIPANDFSEAEYILKTPTDLLEIV	failed
MTKYQETAKAILAAVGGEKNIQHVTHCVTRLRLVLDNDEIVNDQVIKTIPNVIGVMRKNDQYQIILGNDVNNYYNAFLALGHFENTTREFSSQKKSSILEKLIETIAGVITPLIPALLGGGMLKVIGILLPMLGIASSSSQTVAFINFFGDAAYYFMPIMIAYSAASRFKVTPVLAATVGGILLHPAFVTMVAEGKPLSLFGAPVTLASYGSSVIPILIMVFLMQYIERWINKIVPSVMKSFLQPTLIILISGFLALVVVGPLGVIIGKGLSSAMLSIYHVAPWLALSILGAIMPLVVMTGMHWAFAPIFLAASVATPDVLILPAMLASNLAQGAASLAVAVKAKQKQTRQVAFAAGLSALLAGITEPALYGVTLKFKKPLYAAMISGGLVGAYIGLVNIASYTFVVPSIIGLPQYINPQGGNNFSNAVIAAIATIILTFIITWFLGIDEGENEKSSINAQEHTHIRSGLSKKETLYSPMVGNVLPLSKVPDETFSSKLLGEGLAITPSVGEVYAPFDGEIISLFPTKHAIALKDDKGVEVLIHIGIDTVELNGEGFEQLVKVGDFVKRGQLLLRMDIDFISSKGYSLISPVVVTNSIDQLEIIVKDAETMVTNEDDLLVIL	failed
MTLAARETAALDSVPEPPLADQLRAMDHLDALEAQSIYILREAFARLKKLALLWSLGKDSNVMIWLARKAFFGRVPFPALHVDTGKKFPEMYAFRDIYAKEWDLDLRVDPCPPIDSVDPTLPPAARSAARKTEGLKLALAKYGFDGLIAGIRRDEEATRAKERVFSPRGVEGGWDVRDQPAEFWDQFNASPPPGAHLRIHPILHWTEADIWAYTKREGIPIIPLYLSQNGKRYRSLGDQDITFPVNSNAASIDEILLELETTKVPERAGRALDHETEDAFERLRVAGYL	failed
MTLAPPPMPPSDAPAAESAGATLRLVIADALVVILTFIVMFLGVGQLSAEAGLSAVQTAVMTLLTVAAPAQAAAMQIMTSDGATSGVWVAAMVAVIIVNLRFMVMVASILGRLPQAGFLRGTAAVGLVSASSFAIILPRLMSAPPARPLLYCALVGVSCSISAVIGALLGHQLAASVPALVGAALGAMIPIYFATLIARQGKHKALIANALAGAVLVPLAAPLLGSLSLLIVPLGISALSLMIGKGTPANG	failed
MTLATRSMQPHAVSPGQARSWPLPAAGWLLLAVGVWLAFLSWMRPLALPDEGRYAGVAWDMLRNGSFAVPLIDGMPYFHKPPLYYWLAELSFRLFGVNEWAVRLPSALAAWASAVALYLFVRRHRDAASATLCVLVLATLPLFFGGAQYANMDMLVAGMITLCVLAGADTALRVRGGQAWRAMALATGVCAALAMLAKGLIGLVLPGAILLAWLAWRRDWRGLRALLWPPAILAFAVVAVPWFWLMQVRYPGFFQYFFVHQHFERFAQTGFNNVQPFWFYLPVIAGLALPWSLWAGGLLRKQFWAADADPDGLRRLALVWLAVIVAFFSMPQSKLVGYIMPVLPPLAFLLAEVVMGALRDPAVARATRRMARVSALVAVAICVTAVFVASFNARGSSRELALSLRGELRPDDTLVALHTYPFDLQLYAHAARPMWVVDDWSNPEIPKRDNWRRELYDAVQFEPALGERLLVSADTFQQRLCQAPEGSRYWVWGTAADEEAYAPLRGQAARFADARRSLWLVLVDEAFKGRVCDGTPTGG	failed
MTLDTAAGHPTMDFADRCPLPYTSPTHLQAVAYLHGIVAADPDRARVLELGCMSGANLLPFATAYPQAQAVGIDLDEEKIAQGQMWVQQYGLTNLQLQAMDLGSLLDSDLGKFDYIIVHGVFGLISGEARSALLAYCHRHLSAKGVVCFSYSTYPGGKTEEILQDALNLHASLAETPEQQQASARAMLSYLSLGMSADNPQRAAITTLVEEAEKLGDVSLALNYLQGLNQPCYLLDFNALIAQEGLSYVGEIEPHTEIASHYGEQVDSLLRAICPTGNKVLKQQYLDFNVGRKRRFSLLVATERAGKLESEIDISRLDKLSWAGSFRRVMLNKGLASNAHVTNAGIQISTDHELTQQILDVLGNAWPASVSFKQLIFNTHFPEKENDKQEHENNIRESLYALLKQGISSIHFCVGECAYRKSEFSALRALPNCGDIYPTFNYWYESFTLPSEALGLKIPMSLLEEQKEGSLALLDELHHKGLMIGSALAWQRYFQKRLELAKDVNDVIHSINPLIMYSSNASGGGLFKASDVIKVEKSRKEFVNDPIDAKFKGQLYDLLQKQKYDEARSLAEELTVKQPNNLQNWIALERINFVTGDKDAAIFSLAKVISMHSNAWLVYSELASLLHNTYNYWEAINLAYRVIRCDGNIAVAWNVVALVYLKFENMAGAEVCIEKAMKLLPNDAAILNAMAMVLDKKSDVESAIEYYRQAVSNAPEDLSLYSNLLFALLHNAKIPASEIFAEHLLYGDVVEKRNGALAPVRYLQNKDPDRVLRIGFVSGDLYSHPVSKFLSPVWNDIDHQHFSLYAYSTSHHHDDVTRMLEKNSTVWRNVASSSDTELFDLIKRDEIDILFDLSGHTGDNRLSMFAMKPAPIQISWIGYPGTTGLKAMDYYLVMNHAPYPEVLAHQFTEKLLYVLFDRQFEPVVNGPEVNDLPALTNGYLTFASFNRPTKINDTVLSAWGKILVQLPTSKMIIGALPSLQTRDLIRKKLESQGVQPEQLIFRERVNIMNYLAMHQEIDVLLDTFPYTGGTTTNYALWMGVPTLTLAGETYAARQGVVNLGQAGLNEFIAHSEADYIDKAISCNNRLDELNQIRHSLRKKMEYDIDTSDATAATYFEQALRTVWKAYCDGQPPKSYSIGH	failed
MTLETAFMLPVQDAQHSFRRLLKAMSEPGVIVALHQLKRGWQPLNIATTSVLLTLADNDTPVWLSTPLNNDIVNQSLRFHTNAPLVSQPEQATFAVTDEAISSEQLNALSTGTAVAPEAGATLILQVASLSGGRMLRLTGAGIAEERMIAPQLPECILHELTERPHPFPLGIDLILTCGERLLAIPRTTHVEVC	not failed
MTLFTLLLTLAWERLFKQGEHWQIDHRLEVIFRHVSPPSLFQTLFLTLCSMGVVAALLWLTSGILFGLISLLLWIVISLMCIGAGEIRQHYRRYLQAAQRGESDASREMAAELALIHGLPVGTSESEQLKELQNALLWINFRFYLAPLFWFVVAGPYGPVTLMGYAFLRARQTWLARHHTPLERAQSGVDSLLHWLDWIPARLAGAAYALLGHGEKALPAWFASLGDSRSSQYWVLTQLAQFSLARESHIEPVETPKAAVTLAKKVTLVLVVVVALLTIYGALV	failed
MTLHNEIKQLIIDCLDLEDVSIDDIETDAPLFGDGLGLDSIDALELGLAIKKKFDVKIEANSDSTKAHFYSVASLAKFIESQRP	failed
MTLLWGLLSGMAVIGGLIGVVAGLVGTTAPRRAPLQQRWQALRAGKDQGEDVRLRRRTLAALAVVVFVAVWLVSGNFVGGALLGVAVVGVPWLISPAQMAQERIGQLEALSEWTQRLAGLLRLGMGLEQAMITSRQGAPDELAPQIVNLSDRLRLGWRPDGALRAFAEELNDVTADKVVAALILSVNDRGPGLAQALEDLAGTVRDEVAKKRAIEADRAKPRTTVRWMTVITVGVVVAGFFVPSYTKPYSTLLGQLVLAFLTVGFIGVLALMRQLGAFRRIPRFLITDPSSTVRLPLAGDGAGRAGRWP	failed
MTLNITSKQMDITPAIREHLEERLAKLGKWQTQLISPHFVLNKVPNGFSVEASIGTPLGNLLASATSDDMYKAINEVEEKLERQLNKLQHKSESRRADERLKDSFEN	not failed
MTLPPYHTPLPAETLRALSIPAPWTFGLADRVRFGELDAIGHVNHTAYLRWYESFRLPFLKARHVTDYGPTSPRLVLKQVHCTYLAEMGMGEDYVITGRVSNFRTTSFTMEFACWRLGDAVECTSEGSAVVVLLNRDGSGRYPIPEAGRASFVTEDGVLAAG	not failed

From a protein production outcome set (Wang et al. 2014)
